Laboratory results taken from PMC5101909, “Crosslinked duplex DNA nanogels that target specified proteins”.

Experiments:
albumin (BSA) = albumin (BSA) (bovine, UniProt P02769 25-607); assay: EtBr fluorescence (duplex displacement); EtBr-loaded nanogel; Nanogels generated in PBS; buffer, pH and temperature of thrombin binding assays not in the material (section 2.5 text missing); details: label: EtBr intercalated; 11 bp GCTCCGGTTGG/CCAACCGGAGC; 5' overhangs 7 nt T (aptaDNA) and 12 nt T (coDNA); 3' overhang 9 nt TGTGGTTGG (aptaDNA)
thrombin [1] = target: T1, thrombin (UniProt P00734;P00734 328-363;364-622); assay: EtBr fluorescence decrease (duplex displacement); EtBr-loaded nanogel; concentration dependent; Nanogels generated in PBS; buffer, pH and temperature of thrombin binding assays not in the material (section 2.5 text missing)
thrombin [2] = target: T1, thrombin; assay: EMSA (agarose gel, SYBR Gold); aptamer polymer/thrombin 1/10; Nanogels generated in PBS; buffer, pH and temperature of thrombin binding assays not in the material (section 2.5 text missing)

Chain of albumin (BSA) (P02769 25-607): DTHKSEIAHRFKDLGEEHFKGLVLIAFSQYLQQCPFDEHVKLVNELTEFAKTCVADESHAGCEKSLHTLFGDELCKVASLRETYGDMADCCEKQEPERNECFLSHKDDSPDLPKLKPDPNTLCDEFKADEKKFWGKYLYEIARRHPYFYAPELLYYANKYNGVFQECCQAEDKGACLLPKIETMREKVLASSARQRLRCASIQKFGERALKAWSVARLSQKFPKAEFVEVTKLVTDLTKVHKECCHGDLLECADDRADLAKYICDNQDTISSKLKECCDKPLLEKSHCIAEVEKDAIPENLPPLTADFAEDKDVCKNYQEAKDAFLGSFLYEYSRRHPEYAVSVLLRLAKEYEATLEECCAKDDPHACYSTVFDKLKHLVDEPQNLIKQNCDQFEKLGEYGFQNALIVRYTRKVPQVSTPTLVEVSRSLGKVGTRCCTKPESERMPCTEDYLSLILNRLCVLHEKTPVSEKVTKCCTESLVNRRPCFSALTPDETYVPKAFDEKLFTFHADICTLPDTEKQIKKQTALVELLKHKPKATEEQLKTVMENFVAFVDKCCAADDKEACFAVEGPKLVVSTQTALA

Row | Binder | binding result (albumin (BSA)) | binding result (thrombin [1]) | binding result (thrombin [2])
1 | P(MPC/aptaDNA)/P(MPC/coDNA) nanogel (mixed, 5'-acrydite of both strands copolymerized with MPC (38/1 and 45/1)) DNA 1: TTTTTTTGCTCCGGTTGGTGTGGTTGG DNA 2: TTTTTTTTTTTTCCAACCGGAGC | no binding | binds | –
2 | TTTTTTTGCTCCGGTTGGTGTGGTTGG (structured_DNA, 5'-acrydite copolymerized with MPC (MPC/oligo 38/1)) [P(MPC/aptaDNA)] | – | – | binds
